# Measurements published in IntAct's records for PubMed 12802020.
# B1: Tumor susceptibility gene 101 protein (Homo sapiens), Q99816 (parent)
# chain: MAVSESQLKKMVSKYKYRDLTVRETVNVITLYKDLKPVLDSYVFNDGSSRELMNLTGTIPVPYRGNTYNIPICLWLLDTYPYNPPICFVKPTSSMTIKTGKHVDANGKIYLPYLHEWKHPQSDLLGLIQVMIVVFGDEPPVFSRPISASYPPYQATGPPNTSYMPGMPGGISPYPSGYPPNPSGYPGCPYPPGGPYPATTSSQYPSQPPVTTVGPSRDGTISEDTIRASLISAVSDKLRWRMKEEMDRAQAELNALKRTEEDLKKGHQKLEEMVTRLDQEVAEVDKNIELLKKKDEELSSALEKMENQSENNDIDEVIIPTAPLYKQILNLYAEENAIEDTIFYLGEALRRGVIDLDVFLKHVRLLSRKQFQLRALMQKARKTAGLSDLY
# Variants of: B1
# Details: with hgs_human HGS
row,effect of a mutation on the interaction,Variant
1,decreasing interaction strength,M95A
2,decreasing interaction strength,V89A
3,decreasing interaction strength,N45A
4,decreasing interaction,Y63A
5,increasing interaction strength,P320L;P323L
